Assay results as given in the nanobody polyreactivity screen of Harvey et al. (2022).

Test: yeast display, Sf9 membrane polyspecificity reagent, FACS + sequencing; frameworks hold sequencing errors
Outline: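 Galactose-induced (36–48 hours) yeast carrying a synthetic nanobody display library were exposed to 10% biotinylated, detergent-solubilized Sf9 membrane reagent at 4 °C for 1 hour. FACS followed streptavidin microbead enrichment, using low and high (top ~1%) gates for expression (anti-HA) and reagent binding (streptavidin). Colony PCR, MiSeq 2 × 250 sequencing and CDR-length filtering followed. Labels for polyreactivity reflect the gate of origin.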

Sequence	polyreactivity (PSR sort gate)
QVQLVESGGGFVQAGGSLRLSSAASGLTFAAYAMGWSRQAPGKERELVASISRRGGSTYYADSVKGRFTISRDNAMNTVYLQMNSLKPEDTAVYYCAARSFWGGLRYDYWGQGTQVTVSS	high polyreactivity
QVQLVESGGGFVQAGGSLRLSSAASGSTLPGYAMGSYRQAPGKERELVAGISTRGGNTYYADSVKGRFTISRDNAKNTVYLPMNSLKPEDTAVYYCAAGIPRQAYKFYWGQGTQVTVSS	high polyreactivity
QVQLVESGGGFVQAGRSLRISSAPSGLMFLGKAMGWYRPAPGKERDLVGGIRALGGTTSYAYSVKGRFTISRDNAKNTVFLQLICKKPEDTELYVCAASYVSSRYFVLRHGDYYWGKGTQVTVSS	low polyreactivity
QVQLVESGGGFVQAGVSLRLSCAASGLILVPNTMGWYRQAPGKERELVATITNGGSTNYADSVKGRFTISRDNAKNTVYLQMNSLKPEDTAVSYCNADHSYHIASTRHVDYWGQGTQVTVSS	low polyreactivity
QVQLVESGGGIFQAGGSLRLSCSASGNTLVIYAMGWYRQAPVKESELVAAISRAGGTTYYADSVKGRFTISRDKAKNTVYLQMNSLKPEDTEVFYCNAGDHMRKRYGISATWGYGYGYWGQGSQVTVSS	high polyreactivity
QVQLVESGGGILQAGGSLRLSCAASGFILSPNTMAWSRQAPGKERELVAAISSDVSTYADSVKGRFTISRDNAKNTVYLQINSLKPEDTAVYYCNADDFGYASYEYWGQATQVTVSS	low polyreactivity
QVQLVESGGGILQAGGSLRLSCAASGSTFSGYAMGWYRQATGKERELVAAISSSGGSTYYADSVKGRFTISRDNAKNTVYLKMNSQKPEDTAVYYCAKRRYGKHYTGLTSYYYWGHGTQVTVSS	high polyreactivity
QVQLVESGGGIVHAGGSLGLSCAASGRIFYSNAMGWYRQAPGKERELVAAISWNGGRTYYADSVKGRFTISRDNAKNTVYLQMKSLKPEDHAVYYCAVRYARQYYYRSGAYASRYLYNYWGQGTQVTVSS	high polyreactivity
QVQLVESGGGIVHAGGSLRLSCAASGIIFLFYAMGWYRQARVKERELVASITWSGGSTYYADSVKGRFTISRDNAKNNVFLQMLSLKPEDTSVYYCAASVNIISYLVHSEFLGGELDYWGQGTQVTVSS	low polyreactivity
QVQLVESGGGIVKAGGSLRISCAASGSTFIVNAMGWYRQAPGKERELVAAITEDGDTTYYADSVKGRFTISRDNAKNTVYLQMNSLKPEDTAVYFCAAETYYLDDYWGQGTQVTVSS	high polyreactivity
QVQLVESGGGIVPAGGSLRLSCAASGLIFKTYTMGWSRQAPGKEREFVAAITTSGGSTYYADSVKGRFTISRDNAKNTVYLQMNSLKPEDTAVYSCGAVWWKSFQGSSYRMNYWGQGTQVTVSS	high polyreactivity
QVQLVESGGGIVPAGGSLRLSCAASGLTFRFNAMGWYRQAPGKERELVADITVSGGRTYYADSVKGRFTISRDNAKNTVYLQMNSLKPEDTAVYYCARRRTVGVTEPFSRGYDYWGQGTQVTVSS	low polyreactivity
QVQLVESGGGIVQAGGSLRFSCAASGGTFYRYAMGWYRLAPGNERELVAAISSSGGSTYYAVSVKGRFTISRDNAKNTVYLQMNSLKPEDTAVYYCAAYSFQSHNFDYWGQGSQVTVSS	high polyreactivity
QVQLVESGGGIVQAGGSLRFSCAASGSTFLYYAMGWYRLAPGKETEFVADISFSGGSTYYADSVKGRFTSSRDNAKNTVYLQMNSLKPEDTGVYNCAARKKEYKAGNYWGQGTQVNVSS	low polyreactivity
QVQLVESGGGIVQAGGSLRISCAASGSIFFGYAMGWYRPATGKERELVADITVGGGSPFYADSVKGRFTISRDNEKNTVYLQMNSLKPDDTAVYYCADDYYTQWLTRYDYWGQGTQVTLSS	low polyreactivity
QVQLVESGGGIVQAGGSLRLICAASGSIFDGYAMGWYRQAPGKERELVAAISASGVRTYYADSVKGRFTISRDNAKNTVYLQMKSLKPEDTAVYYGAAAVYYGQSVWYYYWGQGTQVTVSS	high polyreactivity
QVQLVESGGGIVQAGGSLRLLCAASGRIFTGNVMGWYRQAPGKERVLVAAISYGGGSTNYADSVKGRFTISRDNAKNTVSLQMNSLIPEDTAVYYCAVLYGYRSSSRYGYDSWGQGSQVTVSS	high polyreactivity
QVQLVESGGGIVQAGGSLRLLCAASGSIFLTNAMGWYRQAPGKERQFVAAIDWGGTITYYADSVKGRFTISRDNAKNNVYLQMNSLKPEDTAVYYCAADGYIRQYVTYYYWGQGTQVTVSS	low polyreactivity
QVQLVESGGGIVQAGGSLRLRCAASGFIFAVNAKGWYRQAPGKESELVAAISSSGTTNYADSVKGRFTISRDNAKNTVYLQMNSLKPEDTAVYYCNKRWRDKYPQYDYWGLGTQVTVSS	low polyreactivity
QVQLVESGGGIVQAGGSLRLRCAASGSIFVPYAMGWYRQAPGKERELVAAISSRGGRTYYADSVKGRFTISRDNAKNTVYLQMNSLKPEDTAVYYCNKTAGSHIPRLEYWGQGTQVTVSS	low polyreactivity
QVQLVESGGGIVQAGGSLRLSCAASGFIFGPYTMGWYRQAPGKERELVAAINNSGSTNYADSVKGRFTISRDNAKNTVYLQMNSLKPEDTAVYYCAAEPIIFVRYDYWGQGTHVTVSS	low polyreactivity
QVQLVESGGGIVQAGGSLRLSCAASGFIFHLYGMGWYRQAPGKERELVAAISSGGRTYYADSVKGRFTISRDNAKNTVSLQMNSLKPEDTAVYSCAVYVAYLYSYYYWGQGTQVNVSS	low polyreactivity
QVQLVESGGGIVQAGGSLRLSCAASGFIFRYAMGWYRPAPGKERELVAAISSSGGSTNYADSVKGRFTISRDNAKNTVYLQMNILKPEDSAVYYCAADQYYGGSWWYDYWGQGTQVSVSS	high polyreactivity
QVQLVESGGGIVQAGGSLRLSCAASGFIFSSYAMGWYRQAPGKERELVAAITVRAGRTYYADSVKGRFTISRDNAKKTVYLQMNSLKPEDTAVYYCNAVSTAVIGYEYDYWGQGTQVTVSS	high polyreactivity
QVQLVESGGGIVQAGGSLRLSCAASGFIIRPYAMGWYRQAPGKERELVAAITGGGSTYYADSVKGRFTISRDNAKNTVYLQMNSLKPEDTAVYYCNADRRRRSGGFAGWHFQRNVYWGQGTQVTLSS	low polyreactivity
QVQLVESGGGIVQAGGSLRLSCAASGFILDYNAMGWYRQAPGKERELVATITGRGDRTYYADSVKGRFTISRDNAKNTVYLQMNSLKPEDTAVYDCAAGFDGSRHPGFDSWGQGTQVTVSS	low polyreactivity
QVQLVESGGGIVQAGGSLRLSCAASGFISSVNAMGWYRQAPGKDRELVAAISDSATSTYYADSVKGRFTISRDNAKNTVYLQMNSLKPEDTAVYYCDAYSHYVGYEYWGQGTQVTVSS	high polyreactivity
QVQLVESGGGIVQAGGSLRLSCAASGFTFDPYAMGWYRQAPGKERELVAATSWSGGSTYYADSVKGRFTISRDNAKNTVYLQMNSLKPEDTAVYYCAAEWYNSAYYEYDYWGQGTQVTVSS	high polyreactivity
QVQLVESGGGIVQAGGSLRLSCAASGFTFIYYAMGWYRQAPGKERELVAGISSGGRTSYADSVKGRFTISRDNAKNTVYFQMNSLKPEDTAVYYCATPVSRFRRTEYGYYYWGQGTQVSVSS	high polyreactivity
QVQLVESGGGIVQAGGSLRLSCAASGFTFRYNTMGWYRQAPGKERELVAAITSRGTSTYYADSVKGRFTISRDNAKNTVYLQMYSLKPEDTAVYYCNKVYFKGTTRLSVSVYKLEYWGQGTQVTVSS	high polyreactivity
